Key:
HveC on CHO-HveC cells = HveC on CHO-HveC cells (UniProt Q15223); assay: cell-based or functional assay
HveA on CHO-HveA cells = HveA on CHO-HveA cells (UniProt Q92956); assay: cell-based or functional assay
Sequence of HveA on CHO-HveA cells (Q92956 39-283 limits assumed): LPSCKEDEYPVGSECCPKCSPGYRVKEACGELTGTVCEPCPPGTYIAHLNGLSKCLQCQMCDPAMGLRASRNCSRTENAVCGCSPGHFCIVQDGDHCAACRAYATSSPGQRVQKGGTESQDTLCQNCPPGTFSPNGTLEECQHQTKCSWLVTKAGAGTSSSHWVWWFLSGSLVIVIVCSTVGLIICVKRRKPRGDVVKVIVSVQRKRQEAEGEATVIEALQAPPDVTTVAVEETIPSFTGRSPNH

Sequence of HveC on CHO-HveC cells (Q15223 31-517 limits assumed): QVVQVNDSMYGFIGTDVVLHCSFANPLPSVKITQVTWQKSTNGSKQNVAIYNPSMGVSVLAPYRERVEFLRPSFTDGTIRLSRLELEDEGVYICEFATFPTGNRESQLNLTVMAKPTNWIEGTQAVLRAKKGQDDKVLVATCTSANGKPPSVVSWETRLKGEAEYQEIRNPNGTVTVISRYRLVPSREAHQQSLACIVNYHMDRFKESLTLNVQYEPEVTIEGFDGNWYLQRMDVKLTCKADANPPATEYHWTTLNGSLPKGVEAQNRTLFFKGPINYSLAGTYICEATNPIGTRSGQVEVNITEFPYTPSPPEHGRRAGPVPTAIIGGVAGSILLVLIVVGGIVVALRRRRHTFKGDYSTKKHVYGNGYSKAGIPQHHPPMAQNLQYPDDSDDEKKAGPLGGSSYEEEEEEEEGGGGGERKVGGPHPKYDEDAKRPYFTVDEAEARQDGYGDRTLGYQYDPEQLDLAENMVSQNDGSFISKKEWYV

Substance | % Complementation, CHO-HveC (HveC on CHO-HveC cells) | % Complementation, CHO-HveA (HveA on CHO-HveA cells)
gD A7H (ligand) | 100% | 80%
gD A7L (ligand) | 100% | 0%
gD A7R (ligand) | 98% | 0%
gD D6A (ligand) | 99% | 0%
gD D6L (ligand) | 98% | 0%
gD D26H (from UniProt A1Z0Q5 26-394) (ligand) | 11% | 10%
gD D26S (ligand) | 7% | 20%
gD D26V (ligand) | 26% | 0%
gD D30H (from UniProt A1Z0Q5 26-394) (ligand) | 6% | 0%
gD D30I (ligand) | 4% | 0%
gD D30V (ligand) | 8% | 0%
gD G33L (from UniProt A1Z0Q5 26-394) (ligand) | 79% | 9%
gD H39Q (ligand) | 100% | 50%
gD H39V (ligand) | 66% | 75%
gD I40A (ligand) | 0% | 0%
gD I40N (from UniProt A1Z0Q5 26-394) (ligand) | 0% | 0%
gD K1D (ligand) | 100% | 100%
gD L9A (ligand) | 100% | 0%
gD L9P (ligand) | 100% | 0%
gD L9R (ligand) | 97% | 0%
gD L25D (from UniProt A1Z0Q5 26-394) (ligand) | 14% | 0%
gD L25H (from UniProt A1Z0Q5 26-394) (ligand) | 12% | 0%
gD L25I (from UniProt A1Z0Q5 26-394) (ligand) | 5% | 0%
gD L25T (from UniProt A1Z0Q5 26-394) (ligand) | 3% | 0%
gD L28C (ligand) | 100% | 0%
gD L28F (ligand) | 41% | 0%
gD L28G (ligand) | 100% | 0%
gD L28P (ligand) | 69% | 0%

Substance | % Complementation, CHO-HveC (HveC on CHO-HveC cells) | % Complementation, CHO-HveA (HveA on CHO-HveA cells)
gD L28S (ligand) | 83% | 0%
gD L44C (ligand) | 83% | 69%
gD L44G (ligand) | 8% | 0%
gD L44P (ligand) | 71% | 53%
gD P31G (from UniProt A1Z0Q5 26-394) (ligand) | 100% | 0%
gD P32H (from UniProt A1Z0Q5 26-394) (ligand) | 100% | 6%
gD Q27G (ligand) | 0% | 0%
gD Q27H (ligand) | 14% | 0%
gD Q27P (rid1) (ligand) | 83% | 0%
gD Q27S (ligand) | 9% | 0%
gD Q27T (ligand) | 0% | 0%
gD Q41P (ligand) | 18% | 0%
gD R36A (from UniProt A1Z0Q5 26-394) (ligand) | 0% | 0%
gD R36D (from UniProt A1Z0Q5 26-394) (ligand) | 0% | 0%
gD R36I (from UniProt A1Z0Q5 26-394) (ligand) | 0% | 0%
gD S8A (ligand) | 100% | 40%
gD S8L (ligand) | 99% | 0%
gD T29G (ligand) | 100% | 0%
gD T29Y (ligand) | 100% | 0%
gD^-R (gD A5I) (ligand) | 100% | 85%
gDΔ2-5 (ligand) | 95% | 0%
gDΔ6-9 (ligand) | 100% | 0%
gDΔ6-24:GSK (ligand) | 19% | 0%
gDΔ10-16 (ligand) | 100% | 0%
gDΔ17-21 (ligand) | 100% | 0%
gDΔ21-24 (ligand) | 100% | 0%
wild-type gD (HSV-1 strain KOS) (ligand) | 100% | 100%

From patent US20020090382A1, “Antiviral compounds and methods” (University of Pittsburgh of the Commonwealth System of …, priority 2000, published 2002)
